# Target: T1, BMAL2 (recombinant human, Novus H00056938-Q01) (Homo sapiens) (UniProt Q8WYA1)
# T1 sequence (Q8WYA1 whole entry, looked up): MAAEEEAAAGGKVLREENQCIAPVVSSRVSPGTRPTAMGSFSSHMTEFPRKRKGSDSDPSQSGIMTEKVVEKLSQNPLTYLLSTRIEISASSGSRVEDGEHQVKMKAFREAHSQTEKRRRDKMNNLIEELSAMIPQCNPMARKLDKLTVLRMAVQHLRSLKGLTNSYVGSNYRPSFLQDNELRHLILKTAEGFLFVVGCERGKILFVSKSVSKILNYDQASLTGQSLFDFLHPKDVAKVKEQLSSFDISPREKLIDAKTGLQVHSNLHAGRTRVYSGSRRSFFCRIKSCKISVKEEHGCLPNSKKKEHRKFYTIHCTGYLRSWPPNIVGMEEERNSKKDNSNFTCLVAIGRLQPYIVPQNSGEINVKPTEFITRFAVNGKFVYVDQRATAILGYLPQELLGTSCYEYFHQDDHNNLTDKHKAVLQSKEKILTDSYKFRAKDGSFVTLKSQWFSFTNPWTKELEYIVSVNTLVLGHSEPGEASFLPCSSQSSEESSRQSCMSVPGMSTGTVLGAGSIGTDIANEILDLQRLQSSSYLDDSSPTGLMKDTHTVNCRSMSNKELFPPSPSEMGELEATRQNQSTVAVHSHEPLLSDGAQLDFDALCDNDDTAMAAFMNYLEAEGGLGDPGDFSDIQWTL
# Experiment: SPR
# Details: BMAL2 immobilized; oligo analyte 50, 100, 200 nM; global 1:1 fit; OpenSPR (text also says BIAcore), 20 C, 30 ul/min; running buffer, salt and pH not stated (immobilization in 10 mM sodium acetate pH 5.5)
sequence,measurement,value
GGCGCAACGCTGAGCAGCT (double strand) [human PD-L1 promoter predicted BMAL2 binding site oligo],Kd,0.209 µM
